The results in this text go back to paper PMC2141715.

Common to all, as to test: co-IP
In assay [1] the target is calnexin (canine pancreas microsomes) (dog (endogenous in canine pancreas microsomes)) (UniProt P24643).
The target in assay [2] is calreticulin (canine pancreas microsomes) (dog (endogenous in canine pancreas microsomes)) (UniProt P28490).
Assay [3] deals with calnexin (canine pancreas microsomes) (dog (endogenous in canine pancreas microsomes)) (UniProt P24643). This is another data set of the same source.
The target in assay [4] is calreticulin (canine pancreas microsomes) (dog (endogenous in canine pancreas microsomes)) (UniProt P28490). The source holds these as a separate data set.

Like-named read-outs stand apart in the source and are kept apart here.

UniProt P24643, sequence (P24643 21-593): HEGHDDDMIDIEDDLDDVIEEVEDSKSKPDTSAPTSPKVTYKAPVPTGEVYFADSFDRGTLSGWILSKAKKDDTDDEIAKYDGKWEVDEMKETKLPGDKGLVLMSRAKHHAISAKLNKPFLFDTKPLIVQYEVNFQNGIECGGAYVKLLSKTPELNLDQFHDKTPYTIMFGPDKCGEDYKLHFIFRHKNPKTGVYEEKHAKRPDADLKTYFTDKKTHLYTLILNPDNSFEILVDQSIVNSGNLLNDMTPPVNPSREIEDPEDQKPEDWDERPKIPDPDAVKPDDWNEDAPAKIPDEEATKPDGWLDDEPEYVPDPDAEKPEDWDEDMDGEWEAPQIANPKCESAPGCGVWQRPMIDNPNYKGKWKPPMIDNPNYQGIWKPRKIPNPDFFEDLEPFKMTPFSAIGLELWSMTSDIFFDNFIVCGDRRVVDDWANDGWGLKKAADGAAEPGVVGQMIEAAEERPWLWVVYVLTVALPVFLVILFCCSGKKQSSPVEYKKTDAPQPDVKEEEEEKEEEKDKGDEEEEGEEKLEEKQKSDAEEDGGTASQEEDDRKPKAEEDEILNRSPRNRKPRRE

Turning to “anchor-free, truncated, soluble form of HA (domain or fragment)”, the percent of HA coprecipitated in assay [1] stood at 54%; in assay [2], 50%.

For the substance “influenza virus hemagglutinin (HA), wild type, X31 (natural protein)”, in assay [3], the binding ratio of the IT2 form (IT1 = 1.0, normalised to anti-HA precipitations) is 0.65; the binding ratio of the NT form (IT1 = 1.0, normalised to anti-HA precipitations) came to 0.63; the percent of HA in calnexin–HA complexes without calreticulin was determined as 8%; the percent of HA in ternary complexes with m2 and m3 was found to be 40%. Further, in assay [4], the binding ratio of the IT2 form (IT1 = 1.0, normalised to anti-HA precipitations) worked out at 0.57; the binding ratio of the NT form (IT1 = 1.0, normalised to anti-HA precipitations) came out at 0.16; the percent of HA coprecipitated was found to be 45%; the percent of HA in calreticulin–HA complexes without calnexin came out at 10%. The substance further came in with a percent of HA in ternary complexes with m2 and m3 in assay [4] of 40%. For the same substance, the percent of HA coprecipitated in assay [1] was 82%. In addition, the percent of HA coprecipitated in assay [2] amounted to 50%.
